The values below come from publication PMC7082075.

Test [1] deals with PX domain of SNX5 (SNX5^PX) (UniProt Q9Y5X3). Briefly: ITC; Fig 2B: CI-MPR (aa21–48) WT or alanine mutants titrated into SNX5^PX; 100 mM Hepes pH 7.5, 300 mM NaCl, 2 mM βME, 25°C; single values of triplicates. In general terms: Isothermal titration calorimetry measures the heat released or taken up as one component is titrated into another.
Test [2] has the same target. Briefly: ITC; S4C Fig: approximately 0.5–1 mM of CI-MPR (aa21–48) WT or loop-deletion peptides titrated into SNX5^PX (50 μM); 100 mM HEPES pH 7.5, 300 mM NaCl, 2 mM βME, 25°C; one set of sites model; single values of triplicates.
For test [3] the target is unchanged. Briefly: ITC; Fig 1D: approximately 2–3 mM of peptides titrated into SNX5^PX (300 μM); 100 mM HEPES pH 7.5, 300 mM NaCl, 2 mM βME, 25°C; one set of sites model; single values of triplicates.
The target in test [4] is PX domain of SNX32 (SNX32^PX). Briefly: ITC; S1B Fig: approximately 2–3 mM of CI-MPR (aa21–48) peptide titrated into approximately 100–300 μM of SNX5^PX, SNX6^PX or SNX32^PX; 100 mM HEPES pH 7.5, 300 mM NaCl, 2 mM βME, 25°C; one set of sites model; single values of triplicates.
The target in test [5] is PX domain of SNX5 (SNX5^PX) (UniProt Q9Y5X3). The test is described as above.
In test [6] the target is PX domain of SNX6 (SNX6^PX) (UniProt Q9UNH7). Described as above.
Chain of PX domain of SNX6 (SNX6^PX) (Q9UNH7 26-173): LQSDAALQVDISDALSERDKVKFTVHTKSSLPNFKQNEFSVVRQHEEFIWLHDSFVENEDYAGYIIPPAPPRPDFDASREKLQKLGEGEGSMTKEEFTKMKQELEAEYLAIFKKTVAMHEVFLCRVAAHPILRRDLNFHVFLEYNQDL
For test [7], the target named is SNX5^PX (UniProt Q9Y5X3). Briefly: ITC; loop length: approximately 0.5–1 mM peptide titrated into SNX5^PX (50 μM); 100 mM HEPES pH 7.5, 300 mM NaCl, 2 mM βME, 25°C (S4C Fig).
Chain of SNX5^PX (Q9Y5X3 20-180): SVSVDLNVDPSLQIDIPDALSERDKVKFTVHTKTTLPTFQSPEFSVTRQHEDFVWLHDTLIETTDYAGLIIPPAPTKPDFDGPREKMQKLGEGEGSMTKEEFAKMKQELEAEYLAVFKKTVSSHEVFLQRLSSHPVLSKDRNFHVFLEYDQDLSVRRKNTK
The target in a further test is SNX32^PX. Briefly: ITC; approximately 2–3 mM CI-MPR (aa21–48) titrated into approximately 100–300 μM SNX5^PX, SNX6^PX or SNX32^PX; 100 mM HEPES pH 7.5, 300 mM NaCl, 2 mM βME, 25°C (S1B Fig).
The target of test [8] is SNX5^PX (UniProt Q9Y5X3). Described as above.
A further test concerns the target SNX6^PX (UniProt Q9UNH7). The description is as above.
Test [9] addresses SNX5^PX (UniProt Q9Y5X3). Briefly: ITC; approximately 2–3 mM peptide titrated into SNX5^PX (300 μM) or the SNX3-retromer complex (10 μM Retromer + 100 μM SNX3); 100 mM HEPES pH 7.5, 300 mM NaCl, 2 mM βME, 25°C; one set of sites model (Fig 1D, 1E, 2B).
The target of test [10] is SNX3-retromer complex (Retromer + SNX3) (UniProt Q96QK1). The description is as above.

Where “and” joins values, the source holds several entries; their conditions need not be identical. Identical values can stand only once.

Chain of PX domain of SNX5 (SNX5^PX) (Q9Y5X3 25-172): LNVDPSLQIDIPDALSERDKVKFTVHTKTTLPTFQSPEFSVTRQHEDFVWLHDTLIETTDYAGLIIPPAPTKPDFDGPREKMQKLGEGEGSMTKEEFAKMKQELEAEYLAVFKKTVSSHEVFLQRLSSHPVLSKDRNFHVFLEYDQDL

Turning to CI-MPR (aa21–48) peptide, wild type, the Kd (in general, a measure of binding affinity in units of concentration) is 18 µM and 11 µM and 25 µM in test [1]; 9 µM and 26 µM and 19 µM in test [2]; 13 µM and 22 µM and 19 µM in test [3]; 18 µM and 15 µM and 21 µM in test [4]; 22 µM and 17 µM and 15 µM in test [5]; 44 µM and 36 µM and 28 µM in [6].
For the substance CI-MPR peptide (aa21–48), the Kd with SNX5^PX [7] is 18 µM; in the test with SNX32^PX, 18 µM; with SNX5^PX [8], 18 µM; with SNX6^PX it was 36 µM; in the test with SNX5^PX [9], 18 µM; in test [10] it was over 400 µM.
